Our source for the protein stability index values is the supplement of paper PMC10567573.

First the molecules themselves.
B1: APBB1IP (parent)
chain: SQVSMWDQRWQDHQPLLPITDVP
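Note: lentivirally expressed fusions sorted by FACS into six bins by GFP to DsRed ratio, PSI derived from sequencing read proportions per bin multiplied by bin number.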

Variants of B1 are the subject of the data set. Nature of the data set: protein stability index of a GFP-peptide fusion (GPS, HEK-293T) (PSI 1-6); higher = more stable. The note with it: c terminus: native.
Turning to SQVSMWDQRWQDHQPTLPITDVP, the protein stability index was found to be 2.92. Under SQVSMWDQRWQDHQPKLPITDVP stands 3.08; under SQVSMWDQRWQDHQPWLPITDVP, 2.23. As to SQVSMWDQRWQDHQPDLPITDVP, the protein stability index was 3.42.

Consider SQVSMWDQRWQDHQPFLPITDVP, for which the protein stability index amounted to 3.4. Under SQVSMWDQRWQDHQPELPITDVP stands 3.38. To SQVSMCDQRWQDHQPLLPITDVP belongs 3.04. To SQVSMYDQRWQDHQPLLPITDVP belongs 2.09; to SQVSMQDQRWQDHQPLLPITDVP, 3.48. For SQVSMNDQRWQDHQPLLPITDVP, the protein stability index turned out to be 3.52. Take SQVSMFDQRWQDHQPLLPITDVP: the protein stability index came out at 2.55. Under SQVSMADQRWQDHQPLLPITDVP stands 3.27; under SQVSMHDQRWQDHQPLLPITDVP, 2.51.

Take SQVSMKDQRWQDHQPLLPITDVP: the protein stability index stood at 3.24. Under SQVSMIDQRWQDHQPLLPITDVP stands 2.56; under SQVSMWDQRWQDHQPLLPINDVP, 3.23; under SQVSMWDQRWQDHQPLLPICDVP, 2.34.

As to SQVSMWDQRWQDHQPLLPIHDVP, the protein stability index was 2.37. As to SQVSMWDQRWQDHQPLLPISDVP, the protein stability index is 3.27. With SQVSMWDQRWQDHQPLLPIMDVP, the protein stability index is 2.04.

With SQVSMWDQRWQDHQPLLPIADVP, the protein stability index is 2.33. As for SQVSMWDQRWQDHQPLLPIYDVP, the protein stability index came to 1.88. Under SQVSMWDQRWQDHQPLLPIFDVP stands 2.58; under SQVSMWDQRWQDHQPLLPIPDVP, 2.7. Under SQISMWDQRWQDHQPLLPITDVP stands 2.23.

On to SQWSMWDQRWQDHQPLLPITDVP, for which the protein stability index came to 1.64. Take SQLSMWDQRWQDHQPLLPITDVP: the protein stability index amounted to 2.04.

On to SQESMWDQRWQDHQPLLPITDVP, for which the protein stability index worked out at 2.9. As to SQQSMWDQRWQDHQPLLPITDVP, the protein stability index was found to be 3.47. As for SQTSMWDQRWQDHQPLLPITDVP, the protein stability index amounted to 2.34. Under SQDSMWDQRWQDHQPLLPITDVP stands 2.81; under SQSSMWDQRWQDHQPLLPITDVP, 2.84. Under SQFSMWDQRWQDHQPLLPITDVP stands 1.86; under SQNSMWDQRWQDHQPLLPITDVP, 2.49. With SQKSMWDQRWQDHQPLLPITDVP, the protein stability index is 2.34. For SQVSMWDQRWQDHQPLMPITDVP, the protein stability index was 2.17. To SQVSMWDQRWQDHQPLEPITDVP belongs 3.68; to SQVSMWDQRWQDHQPLVPITDVP, 2.71. With SQVSMWDQRWQDHQPLGPITDVP, the protein stability index stood at 3.81. As for SQVSMWDQRWQDHQPLFPITDVP, the protein stability index is 2.06.

For the variant SQVSMWDQRWQDHQPLIPITDVP, the protein stability index was found to be 1.85. For SQVSMWDQRWQDHQPLAPITDVP, the protein stability index stood at 3.32. Under SQVSMWDQRWQDHQPLQPITDVP stands 2.59; under SQVSMWDQRWQDHQPLLPITDVI, 2.48; under SQVSMWDQRWQDHQPLLPITDVD, 3.6. As to SQVSMWDQRWQDHQPLLPITDVA, the protein stability index came to 2.56.

With SQVSMWDQRWQDHQPLLPITDVE, the protein stability index turned out to be 2.9. For the variant SQVSMWDQRWQDHQPLLPITDVM, the protein stability index is 1.19. Under SQVSMWDQRWQDHQPLLPITDVF stands 2.21. Turning to SQVSMWDQRWQDHQPLLPITDVC, the protein stability index was found to be 2.85.

For SQVSMWDQRWQDHQPLLPITDNP, the protein stability index was determined as 2.69. Under SQVSMWDQRWQDHQPLLPITDHP stands 2.75; under SQVSMWDQRWQDHQPLLPITDYP, 1.91. As for SQVSMWDQRWQDHQPLLPITDWP, the protein stability index worked out at 2.19.

Take SQVSMWDQRWQDHQPLLPITDEP: the protein stability index amounted to 3.45.

With SQVSMWDQRWQDHQPLLPITDKP, the protein stability index was 3.37. Under SQVSMWDQRWQDHQPLLPITDQP stands 2.98; under SQVSMWDQRWQDHQPLLPITDSP, 2.8.

With SQVSMWDQRWQDHQPLLPITDMP, the protein stability index was determined as 2.53.

With SQVSMWDQRWQDHQPLLPITDIP, the protein stability index turned out to be 2.19.

Regarding SQVSMWDQRWQDHQPLLPITDRP, the protein stability index worked out at 2.99.

As for SQVSMWDQRWQDHLPLLPITDVP, the protein stability index was 2. SQVSMWDQRWQDHPPLLPITDVP: the protein stability index is 2.74. To SQVSMWDQRWQDHIPLLPITDVP belongs 2.09. Under SQVSMWDQRWQDHDPLLPITDVP stands 2.74; under SQVSMWDQRWQDHHPLLPITDVP, 2.67.

Turning to SQVSMWDQRWQDHFPLLPITDVP, the protein stability index is 2.25. To SQVSMWDQRWQDHVPLLPITDVP belongs 2.23; to SQVSMWDQRWQDHGPLLPITDVP, 2.54. Take SQVSMWDQRWQDHWPLLPITDVP: the protein stability index was 2.23. SQVSMWDQRWQIHQPLLPITDVP: the protein stability index worked out at 1.75. To SQVSMWDQRWQQHQPLLPITDVP belongs 2.06; to SQVSMWDQRWQTHQPLLPITDVP, 2.59; to SQVSMWDQRWQNHQPLLPITDVP, 2.17.

Take SQVSMWDQRWQCHQPLLPITDVP: the protein stability index turned out to be 1.56. Under SQVSMWDQRWQFHQPLLPITDVP stands 1.8. On to SQVSMWDQRWQRHQPLLPITDVP, for which the protein stability index was 1.34. On to SQVSMWDQRWQKHQPLLPITDVP, for which the protein stability index turned out to be 1.71. To SQVSMWDQRWQPHQPLLPITDVP belongs 1.78. SQVSMWDQRWQVHQPLLPITDVP: the protein stability index is 3.1. To SQVSMWDQRWQAHQPLLPITDVP belongs 2.31. As to SQVSMWKQRWQDHQPLLPITDVP, the protein stability index came to 1.46. For the variant SQVSMWYQRWQDHQPLLPITDVP, the protein stability index amounted to 2.

SQVSMWQQRWQDHQPLLPITDVP: the protein stability index stood at 2.44.

As for SQVSMWAQRWQDHQPLLPITDVP, the protein stability index was found to be 3.25.

As to SQVSMWWQRWQDHQPLLPITDVP, the protein stability index was determined as 1.49. On to SQVSMWCQRWQDHQPLLPITDVP, for which the protein stability index is 2.37. To SQVSMWNQRWQDHQPLLPITDVP belongs 2.44; to SQVSMWMQRWQDHQPLLPITDVP, 1.44. On to SQVSMWPQRWQDHQPLLPITDVP, for which the protein stability index came to 1.96. Regarding SQVSMWFQRWQDHQPLLPITDVP, the protein stability index came to 1.23. Turning to SQVSMWEQRWQDHQPLLPITDVP, the protein stability index stood at 2.85.

Take SQVSIWDQRWQDHQPLLPITDVP: the protein stability index was determined as 1.98.

As for SQVSAWDQRWQDHQPLLPITDVP, the protein stability index was found to be 3.14. SQVSNWDQRWQDHQPLLPITDVP: the protein stability index amounted to 2.76.

SQVSYWDQRWQDHQPLLPITDVP: the protein stability index was 2.17.

In the case of SQVSCWDQRWQDHQPLLPITDVP, the protein stability index was 1.52.
